“Also recorded” adds a separate entry of the source.
Assays:
[1] = tested on: human ankle cartilage explants; experiment: Quantitative uptake of fusion proteins in human ankle cartilage (uptake ratio); assay type: in vitro ADME; details: 1 μM in PBS + 1% BSA
Method: Cartilage explants were incubated in 250 μL of 1 μM solutions of different fusion proteins dissolved in 1×PBS+1% BSA for either 36 hours (FIG. 4A) or for 108 hours (FIG. 4B) (4.5 days). A group with free +9 GFP dissolved in 1×PBS+1% BSA (1 μM concentration) was included as a control for each of these two time points. An additional untreated control was included in these experiments. Cartilage explants were incubated in plain 1×PBS+1% BSA to account for and to correct for any autofluorescence effects. At the end of the incubation in the 1×PBS+1% BSA: The explants were transferred to a 10×PBS+1% BSA bath for 48 hours. The purpose of this was to desorb the GFPs taken up by the explants. The amount of GFPs left behind in the […] bath was quantified through fluorescence measurements. The desorption step in 10×PBS+1% BSA was followed by a second desorption step using fresh 10×PBS+1% BSA just to ensure any GFPs left in the explant after the 1st desorption come out. At the end of each desorption step, the fluorescence of the 10×PBS+1% BSA bath was measured. After the 2nd desorption step, the explants were digested in Proteinase K and their fluorescence was measured. The uptake ratio for the 36 hour and 108 hour experiments was calculated as (FIG. 4C): […]
Cartilage explants that had been equilibrated in culture medium post-harvest were transferred to sterile PBS and allowed to equilibrate for 1 hour before the start of the experiments. Sterile PBS solutions containing 1% bovine serum albumin (BSA) were prepared. Following this, 1 μM solutions of (+9GFP), (+9GFP)-(GGGGS)4-(IGF-1) (SEQ ID NO: 7), (+9GFP)-(EAAAK)3-(IGF-1) (SEQ ID NO: 8) and (+9GFP)-(GGGGS)3-(IGF-1) (SEQ ID NO: 9) were prepared. The BSA was included in the PBS to minimize loss of GFPs in the solution caused by non-specific binding to the plasticware. […] In contrast, use of polypropylene with 1% BSA enabled complete recovery of fluorescence.
At the end of the incubation period, cartilage explants were washed with PBS and transferred to a solution of 10×PBS+1% BSA for desorption. At the same time, the fluorescence of the absorption bath was measured using a plate reader (Synergy H1, Biotek Instruments Inc.) (excitation: 485 nm, emission: 528 nm). […] At the end of the desorption in 10×PBS+1% BSA, cartilage explants were weighed, and the fluorescence of the desorption bath was measured. This fluorescence measurement was used with a standard curve and the explant wet weights to calculate the concentration of GFP inside cartilage explants (mol/mg wet weight). The uptake ratio was calculated as the ratio of GFP concentration inside cartilage (mol/mg wet weight) to the final absorption bath concentration (mol/mL).

[2] = tested on: human ankle cartilage explants treated with IL-1β; experiment: IL-1β cytokine challenge model, sGAG biosynthesis rate in human ankle cartilage explants; assay type: cell-based; details: continuous 39.2 nM IGF-1; 10 ng/ml mouse IL-1β; FIG. 20

For “(+9GFP)-(GGGGS)4-(IGF-1): fusion protein of +9 GFP and human IGF-1 with flexible (GGGGS)4 linker, SEQ ID NO: 7”, the “Uptake ratio (Mean)” value ([1]; 36 hr) was 12.7 and the “Uptake ratio (Mean)” value ([1]; 108 hr) was 18.3.

“IGF-1: free recombinant human IGF-1 (PeproTech), pro-anabolic growth factor used as the positive control” was tested, and the “rescue of the biosynthesis loss caused by IL-1” value [2] was “rescued; also recorded: could rescue”.

Reference: US12653899B2, “Multi-targeted, tunable, sustained delivery of payloads to charged avascular tissues” (Massachusetts Institute of Technology, priority 2019, dated 2026)
